Measurements taken from patent US20250354175, “ATTP MV4-DERIVED SITE-SPECIFIC RECOMBINATION AND ITS USE FOR INTEGRATION OF SEQUENCE OF INTEREST” (INSTITUT NATIONAL DE RECHERCHE POUR L'AGRICULTURE, …, published 2025).

T1: mv4Int (369 aa integrase) (Lactobacillus delbrueckii bacteriophage …)
T1 chain: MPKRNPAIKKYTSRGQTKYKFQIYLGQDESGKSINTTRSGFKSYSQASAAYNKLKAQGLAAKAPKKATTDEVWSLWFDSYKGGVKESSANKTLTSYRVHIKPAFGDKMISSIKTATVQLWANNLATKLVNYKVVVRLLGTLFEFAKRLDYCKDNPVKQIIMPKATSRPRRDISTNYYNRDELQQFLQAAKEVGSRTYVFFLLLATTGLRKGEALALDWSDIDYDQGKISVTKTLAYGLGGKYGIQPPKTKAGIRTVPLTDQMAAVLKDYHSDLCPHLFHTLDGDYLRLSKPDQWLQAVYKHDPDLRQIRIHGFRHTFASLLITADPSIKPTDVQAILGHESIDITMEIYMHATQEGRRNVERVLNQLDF


Tests used:
[1] = biological target: T1, mv4Int (369 aa integrase); experiment: EMSA; stable with P'12 arm DNA; unstable without; room temperature, polydIdC; conditions: tags: expressed from pET15b; label: Cy3 on bottom strand
Experimental: 5′ Cy3 end-labelled synthetic oligonucleotides (HPLC purified) were obtained from Eurofins. Labelled double strand DNA substrates were prepared by hybridization of complementary oligonucleotides (Table 7C) in 10 mM Tris pH 7.5, 50 mM NaCl by incubating the samples 5 min at 95° C. in a thermal cycler (Biorad) and decreasing the temperature of 1.5° C./min until it reaches 25° C. Binding reactions (20 μl) were performed with 0.87 pmol of labelled core- or arm-type DNA and 4.48 pmol of unlabelled arm- or core-type DNA in buffer containing 25 mM Tris pH 8, 75 mM NaCl, 10% glycerol, 0.5 mM DTT, 0.5 mM EDTA, 1 μg polydIdC (Sigma), 0.1 mg/ml BSA. The protein was added, the reaction performed at room temperature for 20 min and samples were loaded onto a non-denaturing 7.5% polyacrylamide gel (Mini-PROTEAN TGX, Biorad). The gels were run at 4° C., 75V for 2 h.
However, if DNA containing the P′1-P′2 arm-binding sites was added to the reaction, the inhibition was removed and ^λInt was able to stably bind to the core-binding sites. […]

[2] = biological target: T1, mv4Int (369 aa integrase); experiment: EMSA; with arm DNA; complex III increases with mv4Int; conditions: tags: expressed from pET15b; label: Cy3 on bottom strand
Experimental: However, if DNA containing the P′1-P′2 arm-binding sites was added to the reaction, the inhibition was removed and ^λInt was able to stably bind to the core-binding sites. To determine if ^mv4Int N-ter domain also exerts such inhibitory effect on its C-ter domain, they compared the ^mv4Int binding to a labelled 35-bp dsDNA containing the 21-bp core-attP region (Table 7C), in the presence or absence of unlabelled dsDNA containing the P′1 and P′2 arm-type binding sites (Table 7C). ^mv4Int binding to the COC′ sequence appeared quite unstable, as only faint bands and strong background smear can be observed (lane 3, FIG. 8A). Addition of a 28-bp dsDNA containing the P′12 sequences (Table 7C) greatly stimulates and stabilizes ^mv4Int binding to the core-attP sequence and led to the formation of three complexes (lane 4, FIG. 8A). […] To ensure that the stabilization effect was due to the binding of the N-ter domain of ^mv4Int to the arm-type binding site, the 28-pb P′12 dsDNA was replaced by a DNA duplex of 40 pb containing the P′1 and P′2 sites (Table 7C). A stabilization effect on the binding to the COC′ sequence was observed (lane 5, FIG. 8A), with the formation of two complexes (II* and III*) of mobility lower than the complexes observed with the 28-bp P′12 fragment. […]

Binder | binding result [1] | binding result [2]
COC' WT core-attP 35 bp (dsDNA) DNA 1: GGTATTGGAAAGAACCTGTACTCTCCTTGCGTAAC DNA 2: GTTACGCAAGGAGAGTACAGGTTCTTTCCAATACC | binds | –
BOB' WT attB 35 bp (dsDNA) DNA 1: GGTATTGTTCAAATCCTGTACTCTCCTTGCGTAAC DNA 2: GTTACGCAAGGAGAGTACAGGATTTGAACAATACC | – | binds
